# Test results published in article PMC7277991, “Chemoenzymatic Synthesis and Biological Evaluation for Bioactive Molecules Derived from Bacterial Benzoyl Coenzyme A Ligase and Plant Type III Polyketide Synthase” (Biomolecules, 2020).
# T1: Malonyl-CoA synthetase from Rhizobium triofli (RtMCS) (Rhizobium leguminosarum, UniProt Q9ZIP5)
# T1 construct: gene matB; recombinant in E. coli, Ni-NTA purified
# T1 sequence (Q9ZIP5 1-504): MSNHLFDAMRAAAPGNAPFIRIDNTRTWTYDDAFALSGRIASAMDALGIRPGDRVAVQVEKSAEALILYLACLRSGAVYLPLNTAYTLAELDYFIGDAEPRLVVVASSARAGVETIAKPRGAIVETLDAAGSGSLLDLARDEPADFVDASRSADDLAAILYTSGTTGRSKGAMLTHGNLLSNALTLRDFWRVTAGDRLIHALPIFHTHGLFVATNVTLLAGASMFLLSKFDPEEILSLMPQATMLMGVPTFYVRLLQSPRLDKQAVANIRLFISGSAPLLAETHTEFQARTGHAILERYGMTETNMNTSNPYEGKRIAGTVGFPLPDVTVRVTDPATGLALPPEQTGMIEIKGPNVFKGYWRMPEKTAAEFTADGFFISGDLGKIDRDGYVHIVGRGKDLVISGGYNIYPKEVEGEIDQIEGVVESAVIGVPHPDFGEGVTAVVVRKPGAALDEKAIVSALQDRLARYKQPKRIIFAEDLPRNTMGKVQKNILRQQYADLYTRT
# B1: stilbene synthase (STS) from Pinus sylvestris (Pinus sylvestris) (protein)
# chain: MGGVDFEGFRKLQRADGFASILAIGTANPPNAVDQSTYPDFYFRITGNEHNTELKDKFKRICERSAIKQRYMYLTEEILKKNPDVCAFVEVPSLDARQAMLAMEVPRLAKEAAEKAIQEWGQSKSGITHLIFCSTTTPDLPGADFEVAKLLGLHPSVKRVGVFQHGCFAGGTVLRMAKDLAENNRGARVLVICSETTAVTFRGPSETHLDSLVGQALFGDGASALIVGADPIPQVEKACFEIVWTAQTVVPNSEGAIGGKVREVGLTFQLKGAVPDLISANIENCMVEAFSQFKISDWNKLFWVVHPGGRAILDRVEAKLNLDPTKLIPTRHVMSEYGNMSSACVHFILDQTRKASLQNGCSTTGEGLEMGVLFGFGPGLTIETVVLKSVPIQ
# notes: recombinant in E. coli BL21 (DE3), Ni-NTA purified, size-exclusion
# Legend:
# [1] = biological target: T2, benzoate CoA ligase (BadA) (Rhodopseudomonas palustris, UniProt Q6NC13, H333A/I334A, form not given); experiment: X-ray crystal structure; type: binding; details: acyl-adenylate intermediate in active site; thiolation conformation, no CoA
# T2 construct: recombinant in E. coli BL21 (DE3), Ni-NTA purified
# T2 sequence (Q6NC13 entry or part of it H333A/I334A, form open): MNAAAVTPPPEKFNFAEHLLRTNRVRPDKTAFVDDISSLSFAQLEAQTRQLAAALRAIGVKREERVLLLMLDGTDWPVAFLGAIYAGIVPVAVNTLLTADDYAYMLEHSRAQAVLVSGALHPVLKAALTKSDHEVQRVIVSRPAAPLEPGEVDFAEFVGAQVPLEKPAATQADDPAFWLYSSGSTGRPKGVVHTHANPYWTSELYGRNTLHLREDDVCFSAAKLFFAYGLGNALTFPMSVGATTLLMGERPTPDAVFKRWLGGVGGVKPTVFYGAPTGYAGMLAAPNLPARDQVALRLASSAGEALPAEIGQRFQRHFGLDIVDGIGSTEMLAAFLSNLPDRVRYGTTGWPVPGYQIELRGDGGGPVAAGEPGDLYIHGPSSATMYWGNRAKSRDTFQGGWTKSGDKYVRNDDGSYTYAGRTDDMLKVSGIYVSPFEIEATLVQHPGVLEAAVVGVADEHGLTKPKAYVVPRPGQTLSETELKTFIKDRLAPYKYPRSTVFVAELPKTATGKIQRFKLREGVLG
# [2] = biological target: T1, Malonyl-CoA synthetase from Rhizobium triofli (RtMCS); experiment: HPLC and LC-ESI-MS of malonyl-CoA; type: biochemical; details: 5 mM ATP, 2 mM CoA, 5 mM Mg2+, pH 7.5, room temperature; ATP regeneration
# [3] = substrate: CC(C)(COP(=O)(O)OP(=O)(O)OC[C@H]1O[C@@H](n2cnc3c(N)ncnc32)[C@H](O)[C@@H]1OP(=O)(O)O)[C@@H](O)C(=O)NCCC(=O)NCCSC(=O)c1cnc(Cl)s1; experiment: HPLC product formation, Michaelis-Menten fit; type: biochemical, Pinus sylvestris; details: 60 μM malonyl-CoA, 100 mM potassium phosphate pH 7.4, 1 mM EDTA, 30 °C
# Description: (§1) HPLC product formation, Michaelis-Menten fit on stilbene synthase (STS) from Pinus sylvestris
# [4] = substrate: CC(C)(COP(=O)(O)OP(=O)(O)OC[C@H]1O[C@@H](n2cnc3c(N)ncnc32)[C@H](O)[C@@H]1OP(=O)(O)O)[C@@H](O)C(=O)NCCC(=O)NCCSC(=O)CCCCc1ccc(F)cc1; experiment: HPLC product formation, Michaelis-Menten fit; type: biochemical, Pinus sylvestris; details: 60 μM malonyl-CoA, 100 mM potassium phosphate pH 7.4, 1 mM EDTA, 30 °C
# Description: as §1
# [5] = substrate: Cc1ncsc1C(=O)SCCNC(=O)CCNC(=O)[C@H](O)C(C)(C)COP(=O)(O)OP(=O)(O)OC[C@H]1O[C@@H](n2cnc3c(N)ncnc32)[C@H](O)[C@@H]1OP(=O)(O)O; experiment: HPLC product formation, Michaelis-Menten fit; type: biochemical, Pinus sylvestris; details: 60 μM malonyl-CoA, 100 mM potassium phosphate pH 7.4, 1 mM EDTA, 30 °C
# Description: as §1
# [6] = substrate: CC(C)(COP(=O)(O)OP(=O)(O)OC[C@H]1O[C@@H](n2cnc3c(N)ncnc32)[C@H](O)[C@@H]1OP(=O)(O)O)[C@@H](O)C(=O)NCCC(=O)NCCSC(=O)CCCCCCc1ccccc1; experiment: HPLC product formation, Michaelis-Menten fit; type: biochemical, Pinus sylvestris; details: 60 μM malonyl-CoA, 100 mM potassium phosphate pH 7.4, 1 mM EDTA, 30 °C
# Description: as §1
# [7] = substrate: CC(C)(COP(=O)(O)OP(=O)(O)OC[C@H]1O[C@@H](n2cnc3c(N)ncnc32)[C@H](O)[C@@H]1OP(=O)(O)O)[C@@H](O)C(=O)NCCC(=O)NCCSC(=O)CCCCCc1ccccc1; experiment: HPLC product formation, Michaelis-Menten fit; type: biochemical, Pinus sylvestris; details: 60 μM malonyl-CoA, 100 mM potassium phosphate pH 7.4, 1 mM EDTA, 30 °C
# Description: as §1
# [8] = substrate: CC(C)(COP(=O)(O)OP(=O)(O)OC[C@H]1O[C@@H](n2cnc3c(N)ncnc32)[C@H](O)[C@@H]1OP(=O)(O)O)[C@@H](O)C(=O)NCCC(=O)NCCSC(=O)Cc1ccc(-c2ccccc2)cc1; experiment: HPLC product formation, Michaelis-Menten fit; type: biochemical, Pinus sylvestris; details: 60 μM malonyl-CoA, 100 mM potassium phosphate pH 7.4, 1 mM EDTA, 30 °C
# Description: as §1
# [9] = substrate: Cc1ncc(C(=O)SCCNC(=O)CCNC(=O)[C@H](O)C(C)(C)COP(=O)(O)OP(=O)(O)OC[C@H]2O[C@@H](n3cnc4c(N)ncnc43)[C@H](O)[C@@H]2OP(=O)(O)O)s1; experiment: HPLC product formation, Michaelis-Menten fit; type: biochemical, Pinus sylvestris; details: 60 μM malonyl-CoA, 100 mM potassium phosphate pH 7.4, 1 mM EDTA, 30 °C
# Description: as §1
molecule,measurement,setting,value
Cc1ncc(C(=O)OP(=O)(O)OC[C@H]2O[C@@H](n3cnc4c(N)ncnc43)[C@H](O)[C@@H]2O)s1 [2-methylthiazole-5-carboxyl-AMP],X-ray crystal structure,[1],2-methylthiazole-5-carboxyl-AMP (2M5C-AMP) (PDB entry 6M2T) intermediate were obtained
"Nc1ncnc2c1ncn2[C@@H]1O[C@H](COP(=O)(O)OC(=O)c2cnc(Cl)s2)[C@@H](O)[C@H]1O [2-chloro-1,3-thiazole-5-carboxyl-AMP]",X-ray crystal structure,[1],"in complex with a 2-chloro-1,3-thiazole-5-carboxyl-AMP (2Cl5C-AMP) (PDB entry 6M2U)"
O=C(O)CC(=O)O [malonic acid],HPLC and LC-ESI-MS of malonyl-CoA,[2],"Malonyl-CoA was chemo-enzymatically prepared from malonate, CoA, and ATP using RtMCS"
B1,Km,[3],12.77 µM
same,kcat,[3],0.00317 s⁻¹
same,Km,[4],4.15 µM
same,Km,[5],3.82 µM
same,kcat,[5],0.00267 s⁻¹
same,Km,[6],29.42 µM
same,kcat,[6],0.0045 s⁻¹
same,Km,[7],43.89 µM
same,Km,[8],23.24 µM
same,kcat,[8],0.0035 s⁻¹
same,Km,[9],3.87 µM
same,kcat,[9],0.000167 s⁻¹
